Laboratory results from PMC9307175 (PLoS Pathogens, 2022).

B2: S-peptide and His6 dually-tagged vIRF-1, bacterially expressed (pET-S-vIRF-1-His6) (natural protein)
chain: MDPGQRPNPFGAPGAIPKKPCLSQGSPGTSGSGAPCDEPSRSESPGEGPSGTGGSAAAGDITRQAVVAAITEWSRTRQLRISTGASEGKASIKDWIVCQVNSGKFPGVEWEDEERTRFRIPVTPLADPCFEWRRDGELGVVYIRERGNMPVDASFKGTRGRRRMLAALRRTRGLQEIGKGISQDGHHFLVFRVRKPEEEQCVECGVVAGAVHDFNNMARLLQEGFFSPGQCLPGEIVTPVPSCTTAEGQEAVIDWGRLFIRMYYNGEQVHELLTTSQSGCRISSALRRDPAVHYCAVGSPGQVWLPNVPNLACEIAKRELCDTLDACAKGILLTSSCNGIFCVCYHNGPVHFIGNTVPPDSGPLLLPQGKPTRIFNPNTFLVGLANSPLPAPSHVTCPLVKLWLGKPVAVGKLEPHAPSPRDFAARCSNFSDACVVLEIMPKPLWDAMQ
notes: source: E. coli BL21(DE3), purified (Ni-NTA)

What was measured:
[1] = target: T1, chitin-binding domain (CBD)-tagged STAT2 (human (HeLa cDNA library), UniProt P52630 1-851); assay: co-IP; conditions: partners not purified
T1 construct: also called STAT2-CBD; CBD-fused STAT2

[2] = target: T2, Flag- and His6-tagged STAT1, bacterially expressed (pET-Flag-STAT1-His6) (human, UniProt P42224 1-750); assay: pull-down; conditions: both partners purified
T2 construct: also called STAT1 (Flag-tagged); recombinant STAT1; source: E. coli BL21(DE3), purified (Ni-NTA)
T2 sequence: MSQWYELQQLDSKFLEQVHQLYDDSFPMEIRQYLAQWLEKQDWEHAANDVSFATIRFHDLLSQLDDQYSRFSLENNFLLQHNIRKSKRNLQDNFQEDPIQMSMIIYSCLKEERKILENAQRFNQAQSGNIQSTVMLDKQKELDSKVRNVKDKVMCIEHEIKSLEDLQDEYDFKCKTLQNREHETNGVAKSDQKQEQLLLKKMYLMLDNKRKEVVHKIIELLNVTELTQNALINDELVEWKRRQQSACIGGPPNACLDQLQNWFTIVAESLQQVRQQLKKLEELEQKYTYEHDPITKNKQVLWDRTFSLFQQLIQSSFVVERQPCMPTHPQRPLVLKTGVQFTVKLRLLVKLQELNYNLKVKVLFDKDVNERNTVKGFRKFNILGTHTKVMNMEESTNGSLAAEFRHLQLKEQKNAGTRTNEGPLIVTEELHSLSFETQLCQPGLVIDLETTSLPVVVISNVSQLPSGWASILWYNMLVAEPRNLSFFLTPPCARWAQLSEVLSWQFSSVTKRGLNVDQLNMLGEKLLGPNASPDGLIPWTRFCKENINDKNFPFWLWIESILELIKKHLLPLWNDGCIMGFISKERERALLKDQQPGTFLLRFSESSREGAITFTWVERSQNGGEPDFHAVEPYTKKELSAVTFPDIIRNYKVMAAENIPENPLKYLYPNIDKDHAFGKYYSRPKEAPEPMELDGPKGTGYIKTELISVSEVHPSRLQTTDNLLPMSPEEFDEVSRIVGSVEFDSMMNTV

[3] = target: T3, Flag- and His6-tagged STAT2, bacterially expressed (pET-Flag-STAT2-His6) (human, UniProt P52630 1-851); assay: pull-down; conditions: both partners purified
T3 construct: also called STAT2 (Flag-tagged); recombinant STAT2; source: E. coli BL21(DE3), purified (Ni-NTA)

[4] = target: B2; assay: pull-down; conditions: both partners purified

T1 sequence (P52630 whole entry, the tested form may be a part): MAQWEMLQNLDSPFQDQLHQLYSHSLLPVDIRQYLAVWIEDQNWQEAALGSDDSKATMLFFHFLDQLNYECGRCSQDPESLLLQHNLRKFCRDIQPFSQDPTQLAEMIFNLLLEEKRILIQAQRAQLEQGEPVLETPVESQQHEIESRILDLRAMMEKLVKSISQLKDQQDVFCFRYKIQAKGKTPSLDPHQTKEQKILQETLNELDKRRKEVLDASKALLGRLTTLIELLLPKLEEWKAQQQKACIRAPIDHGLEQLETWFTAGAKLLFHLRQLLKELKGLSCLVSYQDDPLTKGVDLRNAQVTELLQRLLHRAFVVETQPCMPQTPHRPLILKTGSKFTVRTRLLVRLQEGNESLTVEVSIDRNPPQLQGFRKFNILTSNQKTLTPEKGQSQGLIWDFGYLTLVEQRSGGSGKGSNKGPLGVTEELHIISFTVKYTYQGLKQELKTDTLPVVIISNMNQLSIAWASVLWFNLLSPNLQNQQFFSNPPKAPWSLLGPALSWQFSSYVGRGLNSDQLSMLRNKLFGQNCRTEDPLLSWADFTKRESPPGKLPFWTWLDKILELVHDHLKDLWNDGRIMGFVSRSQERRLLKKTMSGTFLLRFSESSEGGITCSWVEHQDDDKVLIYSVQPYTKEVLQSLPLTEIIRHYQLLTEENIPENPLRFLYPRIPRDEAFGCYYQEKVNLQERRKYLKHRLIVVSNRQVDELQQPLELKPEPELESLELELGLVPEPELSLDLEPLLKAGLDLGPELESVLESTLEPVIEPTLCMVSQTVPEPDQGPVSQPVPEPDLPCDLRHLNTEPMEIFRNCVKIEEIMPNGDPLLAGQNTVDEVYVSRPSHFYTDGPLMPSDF
T3 sequence (P52630 whole entry): as the sequence (P52630 whole entry, the tested form may be a part) above

B1: Flag-tagged STAT1 (pCEBZ-STAT1-SF) (natural protein)
chain: MSQWYELQQLDSKFLEQVHQLYDDSFPMEIRQYLAQWLEKQDWEHAANDVSFATIRFHDLLSQLDDQYSRFSLENNFLLQHNIRKSKRNLQDNFQEDPIQMSMIIYSCLKEERKILENAQRFNQAQSGNIQSTVMLDKQKELDSKVRNVKDKVMCIEHEIKSLEDLQDEYDFKCKTLQNREHETNGVAKSDQKQEQLLLKKMYLMLDNKRKEVVHKIIELLNVTELTQNALINDELVEWKRRQQSACIGGPPNACLDQLQNWFTIVAESLQQVRQQLKKLEELEQKYTYEHDPITKNKQVLWDRTFSLFQQLIQSSFVVERQPCMPTHPQRPLVLKTGVQFTVKLRLLVKLQELNYNLKVKVLFDKDVNERNTVKGFRKFNILGTHTKVMNMEESTNGSLAAEFRHLQLKEQKNAGTRTNEGPLIVTEELHSLSFETQLCQPGLVIDLETTSLPVVVISNVSQLPSGWASILWYNMLVAEPRNLSFFLTPPCARWAQLSEVLSWQFSSVTKRGLNVDQLNMLGEKLLGPNASPDGLIPWTRFCKENINDKNFPFWLWIESILELIKKHLLPLWNDGCIMGFISKERERALLKDQQPGTFLLRFSESSREGAITFTWVERSQNGGEPDFHAVEPYTKKELSAVTFPDIIRNYKVMAAENIPENPLKYLYPNIDKDHAFGKYYSRPKEAPEPMELDGPKGTGYIKTELISVSEVHPSRLQTTDNLLPMSPEEFDEVSRIVGSVEFDSMMNTV
notes: also called STAT1-Flag
Question: Does B1 bind [1]?
Answer: Result: binds

Question: Does B2 bind [2]?
Answer: Result: binds

Question: Does B2 bind [3]?
Answer: Result: binds

B3: StrepII+Flag (SF)-tagged vIRF-1 (natural protein)
chain: MDPGQRPNPFGAPGAIPKKPCLSQGSPGTSGSGAPCDEPSRSESPGEGPSGTGGSAAAGDITRQAVVAAITEWSRTRQLRISTGASEGKASIKDWIVCQVNSGKFPGVEWEDEERTRFRIPVTPLADPCFEWRRDGELGVVYIRERGNMPVDASFKGTRGRRRMLAALRRTRGLQEIGKGISQDGHHFLVFRVRKPEEEQCVECGVVAGAVHDFNNMARLLQEGFFSPGQCLPGEIVTPVPSCTTAEGQEAVIDWGRLFIRMYYNGEQVHELLTTSQSGCRISSALRRDPAVHYCAVGSPGQVWLPNVPNLACEIAKRELCDTLDACAKGILLTSSCNGIFCVCYHNGPVHFIGNTVPPDSGPLLLPQGKPTRIFNPNTFLVGLANSPLPAPSHVTCPLVKLWLGKPVAVGKLEPHAPSPRDFAARCSNFSDACVVLEIMPKPLWDAMQ
Question: Does B3 bind [1]?
Answer: Result: binds

B4: Flag- and His6-tagged IRF9, bacterially expressed (pET-Flag-IRF9-His6) (natural protein)
chain: MASGRARCTRKLRNWVVEQVESGQFPGVCWDDTAKTMFRIPWKHAGKQDFREDQDAAFFKAWAIFKGKYKEGDTGGPAVWKTRLRCALNKSSEFKEVPERGRMDVAEPYKVYQLLPPGIVSGQPGTQKVPSKRQHSSVSSERKEEEDAMQNCTLSPSVLQDSLNNEEEGASGGAVHSDIGSSSSSSSPEPQEVTDTTEAPFQGDQRSLEFLLPPEPDYSLLLTFIYNGRVVGEAQVQSLDCRLVAEPSGSESSMEQVLFPKPGPLEPTQRLLSQLERGILVASNPRGLFVQRLCPIPISWNAPQAPPGPGPHLLPSNECVELFRTAYFCRDLVRYFQGLGPPPKFQVTLNFWEESHGSSHTPQNLITVKMEQAFARYLLEQTPEQQAAILSLV
notes: also called IRF9 (Flag-tagged); recombinant IRF9; source: E. coli BL21(DE3), purified (Ni-NTA)
Question: Does B4 bind [4]?
Answer: Result: binds
